From patent US20130295106A1 (ONCOMED PHARMACEUTICALS, published 2013)

Assays:
[1] = target: T1, human FZD5 expressed on transfected HEK293 cells (human, UniProt Q13467 27-585); experiment: FACS titration (MFI) on HEK293 cells transfected with full-length FZD and GFP
T1 construct: See note of m11
Experimental: (§1) HEK293 cells were co-transfected with a plasmid DNA expressing full-length FZD1, 2, 5, 7 or 8 along with another plasmid expressing the reporter gene GFP used as a transfection marker. Fugene 6 (Roche) was used as transfection reagent according to the manufacturer directions. Transfected cells were incubated twenty-four to forty-eight hours at 37° C. and 5% CO₂. The anti-FZD mAbs were then diluted in a final volume of 50 μl starting with a concentration of 20 μg/ml and serially diluted 4-fold for a total of 8 dilutions. […] The cells were washed and bound anti-Fzd antibodies were detected with a secondary anti-human antibody conjugated to a fluorescent chromophore. Labeled cells were then detected and counted by FACS. The FACS data generated were expressed in Mean Fluorescence Intensity (MFI) units. GraphPad Prism software was used to graph and analyze the data. MFIs were plotted as a function of Ab concentration to establish dose-response curves. A non-linear regression was applied to the numbers to fit the curve and calculate EC50s.
(§2) The binding profiles for the mAbs 18R5 and 44R24 were determined and compared. 44R24 bound Fzd5 and Fzd8 with good affinity.

[2] = target: T2, human FZD2 expressed on transfected HEK293 cells (human, UniProt Q14332 24-565); experiment: flow cytometry (MFI), antibody titration on HEK293 cells overexpressing the FZD
T2 construct: See note of m11
Experimental: (§3) To measure antibody binding to FZD by flow cytometry HEK293 cells were co-transfected with FZD expression vectors and the transfection marker GFP. Twenty-four to forty-eight hours post-transfection, cells were collected in suspension and incubated on ice with anti-FZD antibodies (10 μg/ml unless otherwise indicated) or control IgG to detect background antibody binding. The cells were washed and primary antibodies detected with Fc domain-specific secondary antibodies conjugated to a fluorescent chromophore (e.g. phycoerythrin conjugated anti-human IgG). Labeled cells were then analyzed by flow cytometry to identify anti-FZD antibodies that specifically recognize cell surface expression of FZD protein. Monoclonal antibodies 18R5 and 18R8 recognized FZD on transfected cells. As shown in FIG. 1 and FIG. 2, both 18R8 and 18R5 bind to multiple FZD including FZD1, FZD2, FZD5, FZD7, and FZD8. To examine the relative ability of 18R8 and 18R5 to bind to each FZD protein, titration analysis was conducted wherein the amount of antibody in the binding reaction was varied (FIG. 2).

[3] = target: T3, human FZD1 expressed on transfected HEK293 cells (human, UniProt Q9UP38 70-647); experiment: as above
Experimental: as §3

[4] = target: T4, human FZD7 expressed on transfected HEK293 cells (human, UniProt O75084 33-574); experiment: FACS titration (MFI) on HEK293 cells transfected with full-length FZD and GFP
T4 construct: See note of m11
Experimental: as §1, §2

[5] = target: T2, human FZD2 expressed on transfected …; experiment: as above
Experimental: as §1, §2

[6] = target: T3, human FZD1 expressed on transfected …; experiment: as above
Experimental: as §1, §2

FZD5-Fc = target: T5, FZD5-Fc (Homo sapiens (Human), UniProt Q13467 27-233, limits assumed); experiment: SPR, Biacore 2000; Fzd Fc immobilized on CM5 chip, IgG 100 to 0.78 nM in solution
T5 construct: also called recombinant FZD5 Fc protein; not shown: Fc part, not described
T5 sequence: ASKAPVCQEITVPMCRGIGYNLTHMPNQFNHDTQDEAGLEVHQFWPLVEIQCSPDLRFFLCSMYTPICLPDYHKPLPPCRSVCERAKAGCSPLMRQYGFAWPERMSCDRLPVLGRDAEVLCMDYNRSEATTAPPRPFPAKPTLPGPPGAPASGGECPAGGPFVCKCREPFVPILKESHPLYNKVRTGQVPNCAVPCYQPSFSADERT
Experimental: (§4) The KDs of 18R8 and 18R5 antibodies were determined using the Biacore 2000 system from Biacore Lifescience (GE Healthcare). Specifically, purified anti-Fzd7 antibodies were serially diluted in 2-fold increments from 100 to 0.78 nM in HBS-P (0.01 M HEPES pH 7.4, 0.15 M NaCl, 0.005% v/v Surfactant P20). Each dilution was tested against recombinant Fzd Fc proteins immobilized onto a CM5 Biacore chip. The association and dissociation rates were measured and KD values determined using the Biaevaluation software program (Table 5, below).

[7] = target: T6, recombinant FZD1 Fc protein (Biacore) (Homo sapiens (Human), UniProt Q9UP38 70-321, limits assumed); experiment: as above
T6 construct: also called Fzd Fc; not shown: Fc part, not described
Experimental: as §4

[8] = target: T7, recombinant FZD2 Fc protein (Biacore) (Homo sapiens (Human), UniProt Q14332 24-250, limits assumed); experiment: as above
T7 construct: also called Fzd Fc; not shown: Fc part, not described
Experimental: as §4

[9] = target: T8, recombinant FZD7 Fc protein (Biacore) (Homo sapiens (Human), UniProt O75084 33-255, limits assumed); experiment: as above
T8 construct: also called Fzd Fc; not shown: Fc part, not described
Experimental: as §4

[10] = target: T9, FZD8-Fc variant Mut2 (substitution at position 75 in the cleft) (human, UniProt Q9H461 28-157); experiment: phage ELISA on FZD8-Fc Mut2
T9 construct: also called FZD8-Mut2; not shown: human IgG1 Fc
T9 chain: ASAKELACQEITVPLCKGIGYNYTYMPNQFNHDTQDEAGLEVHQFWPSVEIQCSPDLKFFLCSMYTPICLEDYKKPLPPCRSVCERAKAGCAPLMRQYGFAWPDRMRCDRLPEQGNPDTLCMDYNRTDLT

[11] = target: T10, soluble FZD8-Fc containing the Fri domain (amino acids 1-157 of FZD8 linked in-frame to human IgG1 Fc) (human, UniProt Q9H461 28-157); experiment: phage ELISA on FZD8-Fc
T10 construct: also called wild-type FZD8; not shown: human IgG1 Fc
T10 sequence: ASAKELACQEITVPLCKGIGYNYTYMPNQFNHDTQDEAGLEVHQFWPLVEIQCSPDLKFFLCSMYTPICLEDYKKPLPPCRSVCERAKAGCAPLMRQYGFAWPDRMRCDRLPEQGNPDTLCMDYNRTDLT

T3 sequence (Q9UP38 70-647 limits assumed): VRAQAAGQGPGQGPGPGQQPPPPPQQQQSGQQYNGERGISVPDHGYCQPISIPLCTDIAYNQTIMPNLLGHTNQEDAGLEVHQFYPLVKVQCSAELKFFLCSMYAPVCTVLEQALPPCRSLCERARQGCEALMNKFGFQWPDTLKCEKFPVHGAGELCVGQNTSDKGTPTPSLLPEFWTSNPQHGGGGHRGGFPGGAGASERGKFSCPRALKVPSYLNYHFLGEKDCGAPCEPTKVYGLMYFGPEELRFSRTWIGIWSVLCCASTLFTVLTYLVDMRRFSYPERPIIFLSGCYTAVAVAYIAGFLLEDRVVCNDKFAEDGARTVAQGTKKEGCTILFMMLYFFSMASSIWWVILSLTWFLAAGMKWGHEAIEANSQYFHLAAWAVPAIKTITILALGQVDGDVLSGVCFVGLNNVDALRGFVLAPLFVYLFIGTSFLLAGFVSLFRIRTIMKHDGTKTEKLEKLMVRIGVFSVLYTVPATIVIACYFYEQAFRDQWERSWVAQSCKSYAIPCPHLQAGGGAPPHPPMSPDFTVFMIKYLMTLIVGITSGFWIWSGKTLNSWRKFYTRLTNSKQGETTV
T2 sequence (Q14332 24-565 limits assumed): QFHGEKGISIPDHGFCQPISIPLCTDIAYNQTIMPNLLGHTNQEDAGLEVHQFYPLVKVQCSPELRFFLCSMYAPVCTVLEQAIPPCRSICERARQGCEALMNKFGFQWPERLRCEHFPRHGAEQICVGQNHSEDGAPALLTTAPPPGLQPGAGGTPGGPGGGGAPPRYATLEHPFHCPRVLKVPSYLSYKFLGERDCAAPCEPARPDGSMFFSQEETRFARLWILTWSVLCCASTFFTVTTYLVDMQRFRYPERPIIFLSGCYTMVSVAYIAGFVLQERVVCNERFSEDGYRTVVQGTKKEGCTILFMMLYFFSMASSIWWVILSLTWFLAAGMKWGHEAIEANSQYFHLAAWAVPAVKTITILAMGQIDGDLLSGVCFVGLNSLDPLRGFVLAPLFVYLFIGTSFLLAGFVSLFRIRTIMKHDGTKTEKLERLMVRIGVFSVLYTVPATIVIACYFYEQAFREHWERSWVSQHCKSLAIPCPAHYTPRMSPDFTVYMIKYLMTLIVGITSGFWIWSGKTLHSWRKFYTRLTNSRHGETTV
T6 sequence (Q9UP38 70-321 limits assumed): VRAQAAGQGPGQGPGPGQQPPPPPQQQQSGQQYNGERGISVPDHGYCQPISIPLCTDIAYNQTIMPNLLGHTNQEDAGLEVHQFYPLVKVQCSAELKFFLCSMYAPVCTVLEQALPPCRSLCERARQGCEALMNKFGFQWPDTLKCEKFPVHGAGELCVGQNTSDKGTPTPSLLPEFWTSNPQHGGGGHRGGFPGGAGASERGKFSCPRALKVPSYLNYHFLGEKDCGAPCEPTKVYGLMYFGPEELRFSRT
T7 sequence (Q14332 24-250 limits assumed): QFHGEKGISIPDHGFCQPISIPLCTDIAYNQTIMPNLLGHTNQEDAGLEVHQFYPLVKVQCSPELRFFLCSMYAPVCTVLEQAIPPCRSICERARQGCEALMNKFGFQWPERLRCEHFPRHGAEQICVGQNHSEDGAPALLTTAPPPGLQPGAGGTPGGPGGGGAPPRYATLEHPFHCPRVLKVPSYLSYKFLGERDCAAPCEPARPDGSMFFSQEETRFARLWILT

B1: 44R24 anti-FZD IgG antibody (antibody, V domains shown)
VH: EVQLVESGGGLVQPGGSLRLSCAASGFTFSSYYITWVRQAPGKGLEWVSTISYSSSNTYYADSVKGRFTISRDNSKNTLYLQMNSLRAEDTAVYYCARSIVFDYWGQGTLVTVSS
VL: DIELTQPPSVSVAPGQTARISCSGDALGNRYVYWYQQKPGQAPVLVIPSGIPERFSGSNSGNTATLTISGTQAEDEADYYCGSWDTRPYPKYVFGGGTKLTVLG
notes: also called anti-FZD5/8 44R24
B1 showed an EC50 [1] of 1.89 nM.

B2: 18R5 IgG antibody (human IgG2, lambda) (antibody, V domains shown)
VH: EVQLVESGGGLVQPGGSLRLSCAASGFTFSHYTLSWVRQAPGKGLEWVSVISGDGSYTYYADSVKGRFTISSDNSKNTLYLQMNSLRAEDTAVYYCARNFIKYVFANWGQGTLVTVSS
VL: DIELTQPPSVSVAPGQTARISCSGDNIGSFYVHWYQQKPGQAPVLVIYDKSNRPSGIPERFSGSNSGNTATLTISGTQAEDEADYYCQSYANTLSLVFGGGTKLTVLG
notes: also called OMP-18R5; 18R5 IgG2 antibody
With B2 the “EC50 (read off the curve)” value [2] was roughly 0.2 µg/mL, the “EC50 (read off the curve)” value [3] was roughly 0.2 µg/mL and the EC50 [4] was 0.58 nM. For the same binder, the EC50 [5] was 0.62 nM, the EC50 [6] was 0.41 nM and the EC50 [1] was 1.1 nM. The Kd (FZD5-Fc) was 1.9 nM, the Kd [7] was 4.6 nM and the Kd [8] was 3.3 nM. It also gave a Kd [9] of 1.8 nM.

DVWWLGSTWLKR (marked with an arrow) [clone 28]: no binding [10].

B3: FZD binding peptide clone #2 (DTLSALIERGLM) (peptide)
peptide: DTLSALIERGLM
notes: Linear 12-mer from the Ph.D. phage display peptide library
B3: no binding [10]; binds [11].
